In patent US20180009871A1 (INTARCIA THERAPEUTICS, published 2018):
Where no end group is shown, it is not given here. [ ]: non-standard residue; d: D form. Aib = CC(C)(N)C(=O)O

B1: Compound A85 (peptide)
peptide: YSHGTFTSDYSKYLD[Aib]KRAQEFV[Aib]WLEDEPSSGKPPPS-NH2
modifications: N-terminus assumed
SMILES: CC(C)C[C@H](NC(=O)[C@H](Cc1ccc(O)cc1)NC(=O)[C@H](CCCCN)NC(=O)[C@H](CO)NC(=O)[C@H](Cc1ccc(O)cc1)NC(=O)[C@H](CC(=O)O)NC(=O)[C@H](CO)NC(=O)[C@@H](NC(=O)[C@H](Cc1ccccc1)NC(=O)[C@@H](NC(=O)CNC(=O)[C@H](Cc1c[nH]cn1)NC(=O)[C@H](CO)NC(=O)[C@@H](N)Cc1ccc(O)cc1)[C@@H](C)O)[C@@H](C)O)C(=O)N[C@@H](CC(=O)O)C(=O)NC(C)(C)C(=O)N[C@@H](CCCCN)C(=O)N[C@@H](CCCNC(=N)N)C(=O)N[C@@H](C)C(=O)N[C@@H](CCC(N)=O)C(=O)N[C@@H](CCC(=O)O)C(=O)N[C@@H](Cc1ccccc1)C(=O)N[C@H](C(=O)NC(C)(C)C(=O)N[C@@H](Cc1c[nH]c2ccccc12)C(=O)N[C@@H](CC(C)C)C(=O)N[C@@H](CCC(=O)O)C(=O)N[C@@H](CC(=O)O)C(=O)N[C@@H](CCC(=O)O)C(=O)N1CCC[C@H]1C(=O)N[C@@H](CO)C(=O)N[C@@H](CO)C(=O)NCC(=O)N[C@@H](CCCCN)C(=O)N1CCC[C@H]1C(=O)N1CCC[C@H]1C(=O)N1CCC[C@H]1C(=O)N[C@@H](CO)C(N)=O)C(C)C
B2: Compound A103 (peptide)
peptide: YSHGTFTSDYSKYLD[Aib]ARAQEFV[Aib]WLEDEPSSGAPPPS-OH
modifications: N-terminus assumed
SMILES: CC(C)C[C@H](NC(=O)[C@H](Cc1ccc(O)cc1)NC(=O)[C@H](CCCCN)NC(=O)[C@H](CO)NC(=O)[C@H](Cc1ccc(O)cc1)NC(=O)[C@H](CC(=O)O)NC(=O)[C@H](CO)NC(=O)[C@@H](NC(=O)[C@H](Cc1ccccc1)NC(=O)[C@@H](NC(=O)CNC(=O)[C@H](Cc1c[nH]cn1)NC(=O)[C@H](CO)NC(=O)[C@@H](N)Cc1ccc(O)cc1)[C@@H](C)O)[C@@H](C)O)C(=O)N[C@@H](CC(=O)O)C(=O)NC(C)(C)C(=O)N[C@@H](C)C(=O)N[C@@H](CCCNC(=N)N)C(=O)N[C@@H](C)C(=O)N[C@@H](CCC(N)=O)C(=O)N[C@@H](CCC(=O)O)C(=O)N[C@@H](Cc1ccccc1)C(=O)N[C@H](C(=O)NC(C)(C)C(=O)N[C@@H](Cc1c[nH]c2ccccc12)C(=O)N[C@@H](CC(C)C)C(=O)N[C@@H](CCC(=O)O)C(=O)N[C@@H](CC(=O)O)C(=O)N[C@@H](CCC(=O)O)C(=O)N1CCC[C@H]1C(=O)N[C@@H](CO)C(=O)N[C@@H](CO)C(=O)NCC(=O)N[C@@H](C)C(=O)N1CCC[C@H]1C(=O)N1CCC[C@H]1C(=O)N1CCC[C@H]1C(=O)N[C@@H](CO)C(=O)O)C(C)C
B3: Compound A99 (peptide)
peptide: YSHGTFTSDYSKYLD[Aib]KRAQEFV[Aib]WLEDEPSSGAPPPS-OH
modifications: N-terminus assumed
SMILES: CC(C)C[C@H](NC(=O)[C@H](Cc1ccc(O)cc1)NC(=O)[C@H](CCCCN)NC(=O)[C@H](CO)NC(=O)[C@H](Cc1ccc(O)cc1)NC(=O)[C@H](CC(=O)O)NC(=O)[C@H](CO)NC(=O)[C@@H](NC(=O)[C@H](Cc1ccccc1)NC(=O)[C@@H](NC(=O)CNC(=O)[C@H](Cc1c[nH]cn1)NC(=O)[C@H](CO)NC(=O)[C@@H](N)Cc1ccc(O)cc1)[C@@H](C)O)[C@@H](C)O)C(=O)N[C@@H](CC(=O)O)C(=O)NC(C)(C)C(=O)N[C@@H](CCCCN)C(=O)N[C@@H](CCCNC(=N)N)C(=O)N[C@@H](C)C(=O)N[C@@H](CCC(N)=O)C(=O)N[C@@H](CCC(=O)O)C(=O)N[C@@H](Cc1ccccc1)C(=O)N[C@H](C(=O)NC(C)(C)C(=O)N[C@@H](Cc1c[nH]c2ccccc12)C(=O)N[C@@H](CC(C)C)C(=O)N[C@@H](CCC(=O)O)C(=O)N[C@@H](CC(=O)O)C(=O)N[C@@H](CCC(=O)O)C(=O)N1CCC[C@H]1C(=O)N[C@@H](CO)C(=O)N[C@@H](CO)C(=O)NCC(=O)N[C@@H](C)C(=O)N1CCC[C@H]1C(=O)N1CCC[C@H]1C(=O)N1CCC[C@H]1C(=O)N[C@@H](CO)C(=O)O)C(C)C
B4: Compound A102 (peptide)
peptide: YSHGTFTSDYSKWLD[Aib]KRAQEFVKWLEDE-OH
modifications: N-terminus assumed
SMILES: CC(C)C[C@H](NC(=O)[C@H](Cc1c[nH]c2ccccc12)NC(=O)[C@H](CCCCN)NC(=O)[C@@H](NC(=O)[C@H](Cc1ccccc1)NC(=O)[C@H](CCC(=O)O)NC(=O)[C@H](CCC(N)=O)NC(=O)[C@H](C)NC(=O)[C@H](CCCNC(=N)N)NC(=O)[C@H](CCCCN)NC(=O)C(C)(C)NC(=O)[C@H](CC(=O)O)NC(=O)[C@H](CC(C)C)NC(=O)[C@H](Cc1c[nH]c2ccccc12)NC(=O)[C@H](CCCCN)NC(=O)[C@H](CO)NC(=O)[C@H](Cc1ccc(O)cc1)NC(=O)[C@H](CC(=O)O)NC(=O)[C@H](CO)NC(=O)[C@@H](NC(=O)[C@H](Cc1ccccc1)NC(=O)[C@@H](NC(=O)CNC(=O)[C@H](Cc1c[nH]cn1)NC(=O)[C@H](CO)NC(=O)[C@@H](N)Cc1ccc(O)cc1)[C@@H](C)O)[C@@H](C)O)C(C)C)C(=O)N[C@@H](CCC(=O)O)C(=O)N[C@@H](CC(=O)O)C(=O)N[C@@H](CCC(=O)O)C(=O)O

Assays:
Experiment in all cases: cell-based or functional assay
[1] = target: human GLP-1 receptor (GLP-1R) (human, UniProt P43220 24-463)
Target sequence in this assay (P43220 24-463): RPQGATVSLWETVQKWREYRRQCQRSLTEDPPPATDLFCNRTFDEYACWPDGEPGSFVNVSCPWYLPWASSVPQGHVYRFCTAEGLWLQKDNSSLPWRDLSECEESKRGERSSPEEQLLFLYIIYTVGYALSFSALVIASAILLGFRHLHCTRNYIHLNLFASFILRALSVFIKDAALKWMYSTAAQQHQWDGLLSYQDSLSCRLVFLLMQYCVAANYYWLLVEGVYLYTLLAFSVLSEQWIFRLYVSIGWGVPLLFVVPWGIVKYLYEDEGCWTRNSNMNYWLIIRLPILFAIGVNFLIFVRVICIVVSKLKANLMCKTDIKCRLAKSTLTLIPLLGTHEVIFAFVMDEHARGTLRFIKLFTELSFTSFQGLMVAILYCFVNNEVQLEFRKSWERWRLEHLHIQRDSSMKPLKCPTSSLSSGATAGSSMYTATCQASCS

[2] = target: human glucagon receptor (GCGR) (human, UniProt P47871 26-477)
[3] = target: human GLP-1 receptor (GLP-1R) (human, UniProt P43220 24-463); remark: listed apart in the source
Target sequence in this assay (P43220 24-463): as above

[4] = target: human glucagon receptor (GCGR) (human, UniProt P47871 26-477); remark: listed apart in the source

| Binder | hGLP1 pEC50 (cAMP) [1] [pEC50] | hGCGR pEC50 (cAMP) [2] [pEC50] | hGLP1 pEC50 (cAMP) mean (n = 3): 11 point curve starting at 1 nM [3] [pEC50] | hGCGR pEC50 (cAMP) mean (n = 3): 11 point curve starting at 1 nM [4] [pEC50] |
| --- | --- | --- | --- | --- |
| WSQGTFTSDYSKYLD[Aib]KAAQEFV[Aib]WLEDEPSSGKPPPS [Compound A93] | < 9 | 10.9 |  |  |
| YSHGTFTSDYSKYLD[Aib]KRAQEFV[Aib]WLEDEPSSGKKPPS [Compound A88] | < 9 | 13.8 |  |  |
| YSHGTFTSDYSKYLDAARAQEFVKWLEDEPSSGAPPPS-OH [Compound A97] |  |  | < 9 | 12.3 |
| YSQGTFTSDYSKYLD[Aib]KAAQEFV[Aib]WLEDEPSSGKPPPS [Compound A96] | < 9 | 13 |  |  |
| YSHGTFTSDYSKYLD[Aib]KRAQEFV[Aib]HLEDEPSSGKPPPS [Compound A89] | < 9 | 12.7 |  |  |
| YSHGTFTSDYTRLLESKRAQEFVKWLEDEPSSGAPPPS-OH [Compound A98] |  |  | < 9 | 12.2 |
| YSQGTFTSDYSKYLD[Aib]KRAQEFV[Aib]WLEDEPSSGAPPPS [Compound A94] | < 9 | 14.1 |  |  |
| B1 | < 9 | 13.6 |  |  |
| B2 | < 9 |  |  |  |
| YSQGTFTSDYSKYLD[Aib]KAAQEFV[Aib]WLEDEPSSGAPPPS [Compound A95] | < 9 | 13.3 |  |  |
| B3 |  |  | < 9 | 12.5 |
| YSHGTFTSDYSKYLD[Aib]KAAQEFV[Aib]WLEDEPSSGKPPPS [Compound A90] | < 9 | 13.1 |  |  |
| WSQGTFTSDYSKYLD[Aib]KRAQEFV[Aib]WLEDEPSSGKPPPS [Compound A91] | < 9 | 12.8 |  |  |
| B4 | < 9 |  |  |  |
| YSQGTFTSDYSKYLDSARAQEFVKWLEDEPKSKSPPPS [Compound A81] | < 9 | 11 |  |  |
| YSQGTFTSDYSKYLDSARAQEFVKWLEDEPKSKAPPPS [Compound A82] | < 9 | 11 |  |  |
| YSHGTFTSDYSKYLDSARAQEFVKHLEDEPKSKSPPPS [Compound A84] | < 9 | 9.4 |  |  |
| YSHGTFTSDYSKYLDSARAQEFTKWLEDEPKSKSPPPS [Compound A83] | < 9 | 10.2 |  |  |
| WSQGTFTSDYSKYLD[Aib]KAAQEFV[Aib]WLEDEPSSGAPPPS [Compound A92] | < 9 | 10.7 |  |  |
| YSHGTFTSDYSKYLD[Aib]KRAQEFV[Aib]WLEDEKSSGKPPPS [Compound A87] | < 9 | 13.6 |  |  |
| YSHGTFTSDYSKYLDAARAQEFVKWLEDEPKSKSPPPS-NH2 [Compound A80] | < 9 | 12.5 |  |  |
| YSQGTFTSDYSKYLD[Aib]KRAQEFV[Aib]WLEDEPSSGKPPPS [Compound A86] | < 9 | 13.3 |  |  |
